Data published in the nanobody polyreactivity screen of Harvey et al. (2022).

Assay: yeast display, Sf9 membrane polyspecificity reagent, FACS + sequencing; frameworks hold sequencing errors
In short: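 Nanobodies came from a synthetic yeast display library in Saccharomyces cerevisiae BJ5465, induced with galactose for 36–48 hours and stained for 1 hour at 4 °C with 10% biotinylated, detergent-solubilized Sf9 membrane reagent. Cells were enriched on streptavidin microbeads and then FACS-sorted, with low and high (top ~1%) gates set on anti-HA fluorescence for expression and streptavidin fluorescence for reagent binding. Each polyreactivity label reflects the gate a clone came from. Genes were amplified by colony PCR, sequenced by MiSeq 2 × 250 and filtered by CDR length.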

| Sequence | polyreactivity (PSR sort gate) |
| --- | --- |
| QVQLVESGGGLVQAGGSLRLSCAASGIIFGVYAMGWYRQAPGKERELVAAISRSGDSTYYADSVKGRFTISRDNAKNTVYLQMNSLKPEDTAVYYCAAEWYITFDYWGQGTQVTVSS | low polyreactivity |
| QVQLVESGGGLVQAGGSLRLRCAASGSTFYGYVMGWYRQAPGQERELVAAITNRAGSTYYADSVKARFTISRDNAKNTVYVQMNSLKPEDTAVYYCNARRPAKSRYRHVYWGQVTQVTVSS | high polyreactivity |
| QVQLVESGGGLVQAGGSLRISCAASGRTFARNSMGWYRQAPGKERELVATITIGGRTYYADSVKGRFTISRDNAMNTVYLQMNSLKPEDTAVYYCAKRISGYRGDYWGQGTQVTVSS | high polyreactivity |
| QVHLAESAAGLDQAGGRLRLSCAAYGIIFYYYAMGWYRQAPGKERELVAAISGTGGRTYYADSVKGRFTISRDNAKNTVYLQMNSLKPEDTAVYYCNADDTPVPSIRFDSWGQGTQVTVSS | low polyreactivity |
| QVHLVESGGGLVQAGGSLRLSCAASGIIFGRFTMGWYRQAPGKERELVAAITSSGITYYADSLKGRFTISRDNAKNTVYLQMNSLKPEDTAVSYCNADYSIPGYYWPFDYWGQGTQVTVSS | low polyreactivity |
| QVQLVESGGGLVQAGGSLRLICAAAGRTFWYNAMGWYRQAPGKERELVAVISSGAITYYADSVKGRFTISRDNAKNTVYLQMNSLKPEDTAVYYCAARSYLSLIDYWGQGTQVTVSS | high polyreactivity |
| QVQLVESGGGLVQAGGSLRLSCAASGITFDSYAMGWYRQSPGKEREWVDAISYSGGSTYYADSVKGRFTISRDNAKNTVNLQMNRLKPEDTAVYYFAAASDEDYDYWGQGTQVTVSS | low polyreactivity |
| QVQLVESGGGLVQAGGSLRIICAASGSIFARNAMGWYRQAPGKERELVASITWSGASTYDADSVKGRFTISRDNAMNTVYLQMNSLKPEDTAVYYCAATDQILSLDYSSYEYLGQGTQVTVSS | low polyreactivity |
| QDQLVESGGGLVQAGGSLRLSCAASGITFYRYAMGWYRQAPGKERDLVAAITTSDTSTYYADSVKGRFTISRDNAKNTVYLQMNSLKPEDTAVYYCATDVVNIAPAEYDYWGQGTQVTVSS | low polyreactivity |
| QVQLVESGGGLVQAGGSLRLSCAASGSIFAFNAMGWYRQAPGKERELVAGITISDSTNYADSVKGRFTISRDNAKNTVYLQMNSLKPEDTAVYYCNADYEQYVYWYWFIKYDYWGQGTQVTVSS | low polyreactivity |
| QVQLVESGGGLVQAGGRLRLSCAASGSTFGANAMGWYRQAPGKEREFVAAISRSGVRTYYADSVKGRFTISRDNAKNTVFLQMNSLKPEDTAVYYCAADGYWWTDTRYDYCGQGTQVTVSS | low polyreactivity |
| QVQLVESGGGLVQAGGSLRLSCAASGFIFTRYAMGWYRQAPGKERELVAAITRSGGRTYYADSVKGRFTISRDNAKNTVYLQMNSLKPEDTAVYYCAAEGSVGLYGLIMHYWGQGTQVTVSS | high polyreactivity |
| QVQLVESGGGLVQAGGSLRLSCAASGSTFGFNAMGWYRQAPGKEREFVAAITRSGGSTYYADSVKGRFTISRDNAKNTVYLQMNSLKPEDTAVYYCAKRRYFYSQWVRAFDYWGQGTQVTVSS | high polyreactivity |
| QVQLVESGGGLVQAGGSLRLSCAASGSIFTVYAMGWSRQAPGKERELVAAITSGGSTNYADSVKGRFTISRDNAKNTVYLQMNSLKPEDTAVYDCNAVWRYGSARYGYWGQGTQVTVSS | low polyreactivity |
| QVQLVESAGGLVQAGGSLRLSCAASGRNFYYYAMGWYRQAPGKERELVAAISIGGITYADSVKGRFTISRDNAKNTVYLQMNRLKPEDTAVYYCAATARQSRGRYYWGQGTQVTVSS | low polyreactivity |
| QVQLVESGGGLVQAGGSLRLSCAASGSIFAYYAMGWYRQAPGKERELVAAISRSGVSTYYADSVKGRFTISRDNAKNTVYLQMNSLKPEDTAVYYCAARWRSGFTSGDYWGQGTQVTVSS | low polyreactivity |
| QVQLVESGGGLVQAGGSLRLTCAASGSTLNYYAMGWYRQAPGKERELVAAIRSGGNTNYADSVKGRFTISRDNAKNTVYLQMNSLKPEDTAVYYCAKDESYFYDRVPLDYWGQGTQVTVSS | low polyreactivity |
| QVQLVESGGGLVQAGGSRRLRCAASGRIFKNYAMGWYRQAPGKERELVAAMTWSVGSTYYADSVKGRFTISRDNAKKTVYLQMNSLKPEDTAVNYCAARRSGTYRYRYEYWGQGSQVTVSS | low polyreactivity |
| QVQHVESGGGLVQAGGSLSLSCADSGITFYRYAMGCDRQAPAKERELVDRISQIGGSTYYADSVKGRFTISRDNAKNTVYLQMNSLKPEDTAVYYCNARVRYSTVTYLRKYYYWGQGTQVTVSS | high polyreactivity |
| QVQLVESGGGLVQAGGSLRLSCAASGIIFTSNTMGWYRQAPGKEREFVASINWNGSSTYADSVKGRFTISRDNAKNTVYLQMNSMKPEDTAVYYCNADYNRNSVQFSLYDYWGQGTQVTVSS | low polyreactivity |
| HVQLVESGGGLVQAGGSLRLSCAASGRTLYNNAMGWYRQAPGKERELVAAISSRGGSTRYADSVKGRFTISRDNAKNTVYLQMNSLKPEDTAVYSGAKRSINRDGDYWGQGTQVTVSS | high polyreactivity |
| QVQLVESAGGLVQAGGSLRLSCAASGFTFKSNAMGWYRQAPGKEREMVAAIDSRGDRTYYADSVKGRFTISRDNAKNTVYLQMNSLKPEDTAVYYCATKWRTYWSSGEYWGQGTQVTVSS | high polyreactivity |

| Sequence | polyreactivity (PSR sort gate) |
| --- | --- |
| QVQLVESGGGLVQAGGSLRLRCAASGSILPWYAMGWYRHAPGKERELVAVITSDGGTNYADSVKGRFTISRDNSKNTVYLQMNSLKPEDTAVYYCAADRFSQSGFDSWGQGTQVTVSS | low polyreactivity |
| QVQLVESRGGLVQAGGSLRLSCSASGRIFTTYAMGWYRQAPGKEREFVAAISRSGGSTYYADSVKGRFTISRDNAKNTVYLQMNSLKPEDTAVYYCAAVPTSNSLRSSFSYWGQGSQVTVSS | high polyreactivity |
| QVQLVESGGGLVQAGGSLRLSCAASGSIFLSYDMGWYRQAPGKERELVAAITQSGGSTYYADSVKGRFTISRDNAKNTVYLQMNSLKPEDTAVYYCAADYGYFPQETYPTYGYYYWGQGTQVTVSS | low polyreactivity |
| QVQLVESGGGLVQAGGSLRLICAASGSIFADYVMGWYRQAPGKERELVAAITIDGGSTYYADSVKGRFTISRDNAKNTVYLQMNSLKPEDTAVYYCAADSSGRSDSWGQGTQVTVSS | low polyreactivity |
| QVHLVESGGGLVQAGGSLRLSCAASGFTFDQNAMGWYRQAPGKERELVAAISIGGSTYYADSVKGRFTISRDNAKNTVYLQMNSLKPEDTAVYYCATRNIYFSSVDYWGQGTQVTVSS | high polyreactivity |
| QVQLVESGGGLVQAGGSLRLSCAASGRTLKYNVMGWYRQAPGKERELVASITSRGGSTRYADSVKGRFTISRDNAKNTVYLLMNSLKPEDTAVYYCAARYTTARSSYDYWGQGTQVTVSS | high polyreactivity |
| QVQLVESGGGLVQAGGSLRLSCAASGGTFLINAMGWYRQAPGKERELVATITSGGTTYYADSVKGRFTISRDNAKNTVYLQMNSLKPEDTAVYYCATRGKGRYGYDSWGQGTQVTVSS | low polyreactivity |
| QVQLVESGGGLVQAGGSLRLSCAASGFTFYRYAMGWYRQAPGKERELVAAISSGGRTTYADSVKGRFTISRDNAKNTVYLQMNSLKPEDTAVYYCVFVYVYDYYYWGQGTQVTVSS | high polyreactivity |
| QVQLVESGGGLVQAGGSHRLSCADSGFILAYYAMGWYRPAPGKERELVAAISIGSSTDYADSVKGRFTISRDNAKNTVYLQMNSLKPEDTAVYYCAARDYYYEYDYWGQGTQVTVSS | low polyreactivity |
| QVQLVESGGRLVQAGGSLRLRCAASGRIIAYYAMGWYRQAPGKERELVAAISRSGGSTYYADSVKGRFTISRDTAQNYVYLQMNSLKPEDTAVYYCAASLIVPYATMNYWGQGTQVTVSS | high polyreactivity |
| QVQLVESGGGLVQAGGSLRLSCAASGSTFVRNAMGWYRQAPGKERELVAGISTGDNTYYADSVKGRFTISRDNAKNTVYLQMNSLKPEDTAVDYCNATKDFSFGLDYWGQGTQVTVSS | low polyreactivity |
| QVQLVESGGGLVQAGGSLRLSCAASGSIFGYYAMGWYRQAPGKERELVARISYSGGTTYYADSVKGRFTISRDNAKNTVYLQMNSLKPEDTAVYYCNARIPYSWRYGYWGQGTQVTVSS | high polyreactivity |
| QVQLVESGGGLVQAGGSLSLSCAASGSTFYRYAKGWYRQAPGKERELVAAISTRGGSTYYADSVKGRFTISRDNAKNTVYLQMNSLKPEDTAVYYCAAKSGSPDDYDYWGHGTQVTVSS | high polyreactivity |
| QVQLVESGGGLVQAGGSLRLSCAASGSTFPYNAMGWYSPAPGKERELVAAITSAGGTNYADSVKGRFTISRDNATNTVYLQMNSLKPEDTAVYYCAADGSGYYDWYYYWGQGTQVTVSS | low polyreactivity |
| QVQLVESGGGIVQAGGSLRLSCAASGYIFQYYAMGWYRQAPGKERELVAAITGGGSTKYADSVKGRFTISRDNAKNTVYLQMNSLKPEDTAVYYCAASLWYRISKYDYWGQGTQVTVSS | high polyreactivity |
| QVQLVESGGGLVQAGGRLRLSCAASGRIFNHYAMGWYRQAPGKERELVAAITFSGGSTYYADSVKGRFTISRDNAKNTVHLQMNSLKPEHTAVYYCANRFSYRYGLQYDYWGQGTQGTVSS | high polyreactivity |
| QDQLVESGGGLVQAGGSLRLSCAASGRTFTRNAMGWYRQAPGKERELVAAISISGGRPYYADSVKGRFTISRDNAKNTVYLQMNSLKPEDTAVYYWAKVTTSKYDYDYWGQGTQVTVSS | high polyreactivity |
| QVQLVESGGGLVQAGGSLRLSCAASGSIFYGNAMGWYRQAPGKERELVAAISNVGRTDYADSVKGRFTISRDNAKNTVYLQMNSLKPEDTAVYYCAAGVYSGYNRYFAPRSWFGYYYWGQGTQVTVSS | low polyreactivity |
| HAQLQESGGCLVQAGGSLRPSCAASGSIFRVSGMGWYRRAPGKERELVASIGFGSITYYADRVKGRFTISRDNAINTVYLQMNSLKPEDTAVYYCAVQVQDESWLDYWGQGTQVTVSC | low polyreactivity |
| QVQLLESGGGLVQAGGSLRLSCAASGSTCGRNAMGWYRQAPGKERELVAAITSTGSTYYADSVKGRFTISRDNAKNTFYLQMNSLNPEDTAVYYCAAEARPYLFPAYKYPYYSWGQGTQVTVSS | low polyreactivity |
| QVQLVESGGGLVQAGGSLRLSCAASGSTSRVYAMGWYRQAPGKERELVAAINKSGTRTYYADSVKGRFTISRDNAKNTVYLQMNSLKPEDTAVYYCAADQGTYGYGGFYYWGQGTQVTVSS | high polyreactivity |
